Measured values taken from IntAct's records for PubMed 12591280.

B1: Actin nucleation-promoting factor WAS (Homo sapiens), P42768 (parent)
chain: MSGGPMGGRPGGRGAPAVQQNIPSTLLQDHENQRLFEMLGRKCLTLATAVVQLYLALPPGAEHWTKEHCGAVCFVKDNPQKSYFIRLYGLQAGRLLWEQELYSQLVYSTPTPFFHTFAGDDCQAGLNFADEDEAQAFRALVQEKIQKRNQRQSGDRRQLPPPPTPANEERRGGLPPLPLHPGGDQGGPPVGPLSLGLATVDIQNPDITSSRYRGLPAPGPSPADKKRSGKKKISKADIGAPSGFKHVSHVGWDPQNGFDVNNLDPDLRSLFSRAGISEAQLTDAETSKLIYDFIEDQGGLEAVRQEMRRQEPLPPPPPPSRGGNQLPRPPIVGGNKGRSGPLPPVPLGIAPPPPTPRGPPPPGRGGPPPPPPPATGRSGPLPPPPPGAGGPPMPPPPPPPPPPPSSGNGPAPPPLPPALVPAGGLAPGGGRGALLDQIRQGIQLNKTPGAPESSALQPPPQSSEGLVGALMHVMQKRSRAIHSSDEGEDQAGDEDEDDEWDD

What was measured:
[1] = variants of: B1; conditions: with wipf1_human WIPF1, O43516
Sequence of wipf1_human WIPF1, O43516 (O43516 whole entry): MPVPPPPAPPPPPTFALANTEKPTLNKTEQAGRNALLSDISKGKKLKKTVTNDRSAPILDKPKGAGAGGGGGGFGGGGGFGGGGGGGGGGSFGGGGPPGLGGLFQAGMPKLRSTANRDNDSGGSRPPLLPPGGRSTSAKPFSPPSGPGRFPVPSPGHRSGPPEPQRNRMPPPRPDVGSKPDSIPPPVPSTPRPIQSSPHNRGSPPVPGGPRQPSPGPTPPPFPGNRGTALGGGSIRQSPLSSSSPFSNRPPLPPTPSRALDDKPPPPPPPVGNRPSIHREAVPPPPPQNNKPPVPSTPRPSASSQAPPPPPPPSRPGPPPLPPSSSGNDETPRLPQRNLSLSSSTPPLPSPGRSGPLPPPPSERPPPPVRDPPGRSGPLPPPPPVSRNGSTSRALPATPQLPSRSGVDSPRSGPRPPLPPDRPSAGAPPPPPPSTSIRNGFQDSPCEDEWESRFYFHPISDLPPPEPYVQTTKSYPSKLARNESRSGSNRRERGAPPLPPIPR

[2] = variants of: B1; conditions: with wipf1_human WIPF1, O43516; remark: listed apart in the source

| Variant | effect of a mutation on the interaction [1] | effect of a mutation on the interaction [2] |
| --- | --- | --- |
| MSGGPMGGRPGGRGAPAVQQNIPSTLLQDHENQRLFEMLGRKCLTLATAVVQLYLALPPGAEHWTKEHCGAVCFVKDNPQKSYFIRLYGLQAGRLLWEQELYSQLVYSTPTPFFHTFAGDDCQAGLNFADEDETQAFRALVQEKIQKRNQRQSGDRRQLPPPPTPANEERRGGLPPLPLHPGGDQGGPPVGPLSLGLATVDIQNPDITSSRYRGLPAPGPSPADKKRSGKKKISKADIGAPSGFKHVSHVGWDPQNGFDVNNLDPDLRSLFSRAGISEAQLTDAETSKLIYDFIEDQGGLEAVRQEMRRQEPLPPPPPPSRGGNQLPRPPIVGGNKGRSGPLPPVPLGIAPPPPTPRGPPPPGRGGPPPPPPPATGRSGPLPPPPPGAGGPPMPPPPPPPPPPPSSGNGPAPPPLPPALVPAGGLAPGGGRGALLDQIRQGIQLNKTPGAPESSALQPPPQSSEGLVGALMHVMQKRSRAIHSSDEGEDQAGDEDEDDEWDD [A134T] | disrupting interaction strength |  |
| MSGGPMGGRPGGRGAPAVQQNIPSTLLQDHENQRLFEMLGRKCLTLATAVVQLYLALPPGAEHWTKEHCGAVCFVKDNPQKSYFIRLYGLQAGRLLWEQELYSQLVYSTPTPFFHTFAGDDCQAGLNFADEDEAQAFAALVQEKIQKRNQRQSGDRRQLPPPPTPANEERRGGLPPLPLHPGGDQGGPPVGPLSLGLATVDIQNPDITSSRYRGLPAPGPSPADKKRSGKKKISKADIGAPSGFKHVSHVGWDPQNGFDVNNLDPDLRSLFSRAGISEAQLTDAETSKLIYDFIEDQGGLEAVRQEMRRQEPLPPPPPPSRGGNQLPRPPIVGGNKGRSGPLPPVPLGIAPPPPTPRGPPPPGRGGPPPPPPPATGRSGPLPPPPPGAGGPPMPPPPPPPPPPPSSGNGPAPPPLPPALVPAGGLAPGGGRGALLDQIRQGIQLNKTPGAPESSALQPPPQSSEGLVGALMHVMQKRSRAIHSSDEGEDQAGDEDEDDEWDD [R138A] | with no effect | increasing interaction strength |
| MSGGPMGGRPGGRGAPAVQQNIPSTLLQDHENQRLFEMLGRKCLTLATAVVQLYLALPPGAEHWTKEHCGAVCFVKDNPQKSYFIRLYGLQAGRLLWEQELYSQLVYSTPTPFFHTFAGDDCQAGLNFADEDEAQAFEALVQEKIQKRNQRQSGDRRQLPPPPTPANEERRGGLPPLPLHPGGDQGGPPVGPLSLGLATVDIQNPDITSSRYRGLPAPGPSPADKKRSGKKKISKADIGAPSGFKHVSHVGWDPQNGFDVNNLDPDLRSLFSRAGISEAQLTDAETSKLIYDFIEDQGGLEAVRQEMRRQEPLPPPPPPSRGGNQLPRPPIVGGNKGRSGPLPPVPLGIAPPPPTPRGPPPPGRGGPPPPPPPATGRSGPLPPPPPGAGGPPMPPPPPPPPPPPSSGNGPAPPPLPPALVPAGGLAPGGGRGALLDQIRQGIQLNKTPGAPESSALQPPPQSSEGLVGALMHVMQKRSRAIHSSDEGEDQAGDEDEDDEWDD [R138E] | with no effect | increasing interaction strength |
| MSGGPMGGRPGGRGAPAVQQNIPSTLLQDHENQRLFEMLGRKCLTLATAVVQLYLALPPGAEHWTKEHCGAVCFVKDNPQKSYFIRLYGLQAGRLLWEQELYSQLVYSTPTPFFHTFAGDDCQAGLNFADEDEAQAFPALVQEKIQKRNQRQSGDRRQLPPPPTPANEERRGGLPPLPLHPGGDQGGPPVGPLSLGLATVDIQNPDITSSRYRGLPAPGPSPADKKRSGKKKISKADIGAPSGFKHVSHVGWDPQNGFDVNNLDPDLRSLFSRAGISEAQLTDAETSKLIYDFIEDQGGLEAVRQEMRRQEPLPPPPPPSRGGNQLPRPPIVGGNKGRSGPLPPVPLGIAPPPPTPRGPPPPGRGGPPPPPPPATGRSGPLPPPPPGAGGPPMPPPPPPPPPPPSSGNGPAPPPLPPALVPAGGLAPGGGRGALLDQIRQGIQLNKTPGAPESSALQPPPQSSEGLVGALMHVMQKRSRAIHSSDEGEDQAGDEDEDDEWDD [R138P] | disrupting interaction strength | decreasing interaction strength |
